The source of these data is PMC6237754, “A monovalent ion in the DNA binding interface of the eukaryotic junction-resolving enzyme GEN1”.

The series deals with T1, CtGEN1 (Chaetomium thermophilum, UniProt G0RYN2 1-487).
T1 sequence: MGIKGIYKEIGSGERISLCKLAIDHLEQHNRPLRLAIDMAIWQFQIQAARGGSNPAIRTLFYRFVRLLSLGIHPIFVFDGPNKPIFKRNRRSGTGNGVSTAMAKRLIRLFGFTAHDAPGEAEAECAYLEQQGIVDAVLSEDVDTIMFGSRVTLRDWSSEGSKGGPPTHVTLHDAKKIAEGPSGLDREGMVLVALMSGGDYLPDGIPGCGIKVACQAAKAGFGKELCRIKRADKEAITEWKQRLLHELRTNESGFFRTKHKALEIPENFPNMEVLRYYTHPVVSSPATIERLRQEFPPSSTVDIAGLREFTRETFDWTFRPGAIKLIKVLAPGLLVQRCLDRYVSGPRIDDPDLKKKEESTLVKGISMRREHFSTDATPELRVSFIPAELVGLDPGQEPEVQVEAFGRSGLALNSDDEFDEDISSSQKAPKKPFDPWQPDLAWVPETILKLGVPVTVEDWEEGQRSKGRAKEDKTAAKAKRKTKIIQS
As to the kind of experiment: EMSA; 100 mM KCl; EMSA: equal volumes of DNA in 10 mM Tris pH 7.5, 0.1% BSA, 100 mM KCl or NaCl and CtGEN1 in 10 mM Tris pH 7.5, 100 mM NDSB-195, 0.1% BSA, 1 mM EDTA; 20 min, 20. The following applies: protein: recombinant; tags: C-terminal His6; chain copies: 2; label: 5'-32P; four-way junction; strands b/h/r/x, 50 nt each. Background: In EMSA bound probe runs differently from free probe, usually more slowly.

B1: four-way junction 3 (4H) (structured_DNA)
DNA 1: CCTCGAGGGATCCGTCCTAGCAAGGGGCTGCTACCGGAAGCTTACAGATG
DNA 2: CATCTGTAAGCTTCCGGTAGCAGCCTGAGCGGTGGTTGAATTCACAGATG
DNA 3: CATCTGTGAATTCAACCACCGCTCAACTCAACTGCAGTCTAGAACACATG
DNA 4: CATGTGTTCTAGACTGCAGTTGAGTCCTTGCTAGGACGGATCCCTCGAGG
As to B1, the binding signal was ~2 fold higher affinity than in Na+.
